Assay [1] addresses T1, human HER2 (human epidermal growth factor receptor 2) (human, UniProt P04626 23-1255).
T1 construct: whole, on cells; also called ERBB2; h-HER2
In words: flow cytometry whole cell binding, HCC202 cells. (In general: Flow cytometry measures light scatter and fluorescence of single cells or particles in a stream.)

The target in assay [2] is T1, human HER2 (human epidermal growth …). In words: cell-based or functional assay.
For assay [3] the target is unchanged. In words: flow cytometry whole cell binding, CHO-h-HER2 stable cells.
For assay [4] the target is unchanged. As to the kind of experiment: flow cytometry whole cell binding, SKBR3 cells.
In assay [5] the target is human TROP2 (Trophoblast cell-surface antigen 2) (human) (UniProt P09758). In words: flow cytometry, OE-19 cells.
The target is the same in assay [6]. As to the kind of experiment: flow cytometry whole cell binding, Colo205 cells (endogenous TROP2).
The target is the same in assay [7]. In words: flow cytometry, SKOV3 cells.
The target is the same in assay [8]. As to the kind of experiment: flow cytometry, SKBR3 cells, antibody at 100 nM.
Assay [9] has the same target. In words: flow cytometry whole cell binding, NCI-H1975 cells (endogenous TROP2).
For assay [10] the target is unchanged. As to the kind of experiment: flow cytometry whole cell binding, CHO-h-TROP2 stable cells.
Assay [11] has the same target. In words: flow cytometry whole cell binding, NCI-H441 cells.
Assay [12] has the same target. In words: flow cytometry, NCI-H441 cells, Immu-132 at 100 nM.
The target is the same in assay [13]. As to the kind of experiment: cell-based or functional assay.
Assay [14] shares this target. In words: flow cytometry whole cell binding, h-TROP2 stably transfected CHO cells.
Assay [15] has the same target. In words: flow cytometry whole cell binding, HCC202 cells.
The target is the same in assay [16]. As to the kind of experiment: flow cytometry, HCC202 cells, antibody at 100 nM.
Assay [17] has the same target. In words: flow cytometry whole cell binding, SKBR3 cells.
Assay [18] shares this target. In words: flow cytometry whole cell binding, CHO-h-TROP2 stable cells. The source holds these as a separate data set.
Assay [19] shares this target. In words: flow cytometry, AU-565 cells, Immu-132 at 100 nM.
The target of assay [20] is T2, human TROP2 (Trophoblast cell-surface antigen 2) (human, UniProt P09758 27-323).
T2 construct: whole, on cells; also called TACSTD2; h-TROP2
T2 sequence (looked up): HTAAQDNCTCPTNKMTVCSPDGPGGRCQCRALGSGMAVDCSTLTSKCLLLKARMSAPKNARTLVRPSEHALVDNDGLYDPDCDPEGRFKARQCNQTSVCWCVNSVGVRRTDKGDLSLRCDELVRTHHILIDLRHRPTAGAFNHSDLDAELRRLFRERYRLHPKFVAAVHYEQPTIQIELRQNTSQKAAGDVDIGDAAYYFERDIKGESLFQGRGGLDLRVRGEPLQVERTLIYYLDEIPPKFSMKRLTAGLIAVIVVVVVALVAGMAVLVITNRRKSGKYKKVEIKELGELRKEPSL
In words: flow cytometry whole cell binding, HCC202 cells.

In assay [21] the target is T2, human TROP2 (Trophoblast cell-surface …). In words: cell-based or functional assay.
Assay [22] has the same target. As to the kind of experiment: flow cytometry whole cell binding, NCI-H441 cells.
Assay [23] has the same target. In words: flow cytometry whole cell binding, SKBR3 cells.
For assay [24] the target is unchanged. As to the kind of experiment: flow cytometry whole cell binding, CHO-h-TROP2 stable cells.

Consider four molecules from US20260176373A1 (BRIGHT BIOLOGICS, published 2026).

As a reminder, the EC50 is the midpoint of the concentration-response curve.

B1: 11D5_Fc (antibody, V domains shown)
VH: QVQLVESGGGVVQPGRSLRLSCAASGSTFSSLAMHWVRQAPGKERELVAAISYSGGYTYYADSVKGRFTISRDNSKNTLYLQMNSLRAEDTAVYYCAASSIFIGAYDYWGQGTLVTVSS
notes: monospecific bivalent VHH-Fc with C220S mutation in the hinge region; also called monospecific anti-HER2 (11D5)
Consider B1, for which the EC50 in [1] was found to be 3.25 nM; in assay [3], 0.684 nM; in assay [4], 2.59 nM. Further, the “IC50, nM, Killing of HCC202 cells by 2nd Ab-MMAE” value in assay [2] came to 0.18 nM. In [2], the “IC50, nM, Killing of SKBR3 cells by 2nd Ab-MMAE” value came to 0.134 nM.

B2: Immu-132 (antibody, INN chains, looked up, V domains shown)
VH: QVQLQQSGSELKKPGASVKVSCKASGYTFTNYGMNWVKQAPGQGLKWMGWINTYTGEPTYTDDFKGRFAFSLDTSVSTAYLQISSLKADDTAVYFCARGGFGSSYWYFDVWGQGSLVTVSS
VL: DIQLTQSPSSLSASVGDRVSITCKASQDVSIAVAWYQQKPGKAPKLLIYSASYRYTGVPDRFSGSGSGTDFTLTISSLQPEDFAVYYCQQHYITPLTFGAGTKVEIKR
modifications: unconjugated
For the molecule B2, the MFI was found to be 30000 MFI in assay [5]; 50000 MFI in assay [7]; 90000 MFI in assay [8]; 200000 MFI in assay [12]; 200000 MFI in assay [16]; 90000 MFI in assay [19]. Further, the EC50 in assay [6] was 1.15 nM; in assay [9], 3.61 nM; in assay [10] it was 1.16 nM; in assay [11], 1.74 nM; in assay [14] it was 2.2 nM; in assay [15], 4.02 nM. For the same molecule, the EC50 in [17] was found to be 128 nM; in assay [18] it was 0.84 nM. Besides, the IC50, nM, Killing of HCC202 cells by 2nd Ab-MMAE in assay [13] was 0.19 nM. Also, the IC50, nM, Killing of NCI-H441 cells by 2nd Ab-MMAE in assay [13] worked out at 0.13 nM. The IC50, nM, Killing of SKBR3 cells by 2nd Ab-MMAE in assay [13] was determined as 0.452 nM.

B3: 1H11-hv8_Fc (antibody, V domains shown)
VH: EVQLVESGGGLVQPGGSLRLSCAASGGTFSRYIMGWFRQAPGKEREFVSTISGSGGSTYYADSVKGRFTISRDNSKNTLYLQMNSLRAEDTAVYYCASTFYSTTYVAQRDARDYAYWGQGTQVTVSS
notes: monospecific bivalent VHH-Fc with C220S mutation in the hinge region; also called monospecific anti-TROP2 (1H11-hv8)
B3 came in with an EC50 in [20] of 3.5 nM. For the same molecule, in [21], the “IC50, nM, Killing of HCC202 cells by 2nd Ab-MMAE” value worked out at 0.2 nM; the “IC50, nM, Killing of NCI-H441 cells by 2nd Ab-MMAE” value came to 0.15 nM; the “IC50, nM, Killing of SKBR3 cells by 2nd Ab-MMAE” value came to 0.48 nM. Further, a half-maximal response in [22] (EC50) required 1.6 nM. Besides, in [23], the EC50 was found to be 141 nM.

B4: 1H11-hv10_Fc (antibody, V domains shown)
VH: EVQLVESGGGLVQPGGSLRLSCAASGGTFSRYIMSWFRQAPGKEREFVSAISGSGGSTYYADSVKGRFTISRDNSKNTLYLQMNSLRAEDTAVYYCASTFYSTTYVAQRDARDYAYWGQGTQVTVSS
notes: monospecific bivalent VHH-Fc with C220S mutation in the hinge region; also called monospecific anti-TROP2 (1H11-hv10)
With B4, the EC50 in assay [24] is 2.38 nM.
